Experimental data reported in US20080064048A1, “Methods for Selecting Proteins that are Readily Presented as Antigens on Dendritic Cells” (Medical and Biological Laboratories, Co., Ltd., priority 2004, published 2008).

Tests used:
Sec61β = molecular target: T1, Sec61β (Mus musculus, UniProt Q9CQS8); experiment: Co-immunoprecipitation of bOVA with anti-Sec61β; type: binding
T1 construct: endogenous in cells; host or cells: DC2.4 mouse dendritic cell line; bone marrow-derived dendritic cells
Protocol: (§1) 2×10^7 DC2.4 or BMDC cells were cultured for four hours in a medium containing 10 μM MG-132 in the presence of bOVA at 250 μg mL^−1. Cells were lysed in 20 mM HEPES pH7.6 containing 1% digitonin and protease inhibitors to collect biotin-labeled samples. The samples were cleared of impurities in advance using protein G sepharose (Amersham Pharmacia Biotech), and after incubation with antibodies for precipitation (anti-Sec61β, anti Sec61α, anti-VCP, anti-BiP, anti-PDI, anti-calreticulin, anti-TAP1, and anti-TAP2), the immunoprecipitates were collected using protein G. When chicken anti-CHIP antibody was used, immunoprecipitates were collected using a rabbit anti-IgY column (a person, MBL). The precipitated samples were analyzed by SDS-PAGE and Western blotting.

calreticulin = molecular target: T2, calreticulin (Mus musculus, UniProt P14211); experiment: Co-immunoprecipitation of bOVA with anti-calreticulin; type: binding; conditions: DC2.4 cells incubated with bOVA
T2 construct: Three types of ER resident proteins; endogenous in cells; host or cells: DC2.4 mouse dendritic cell line
T2 sequence (P14211 18-416): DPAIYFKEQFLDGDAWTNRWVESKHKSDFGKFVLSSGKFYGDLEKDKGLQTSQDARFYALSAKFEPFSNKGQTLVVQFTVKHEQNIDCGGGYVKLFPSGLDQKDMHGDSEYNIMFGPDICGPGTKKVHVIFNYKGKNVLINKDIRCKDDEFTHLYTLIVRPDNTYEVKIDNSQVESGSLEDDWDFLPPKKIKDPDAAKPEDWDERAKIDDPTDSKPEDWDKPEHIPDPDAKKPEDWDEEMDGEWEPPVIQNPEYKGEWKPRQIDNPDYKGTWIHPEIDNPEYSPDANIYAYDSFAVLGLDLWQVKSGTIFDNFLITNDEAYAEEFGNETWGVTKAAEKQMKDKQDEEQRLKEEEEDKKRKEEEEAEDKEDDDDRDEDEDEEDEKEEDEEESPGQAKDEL
Protocol: as §1

OT-I CD8+ T cells = experiment: Antigen presentation level: IL-2 production by OT-I CD8+ T cells (ELISA); type: cell-based, mouse; conditions: DC2.4, dose-response OVA vs bOVA
Source text: Whether knock-down of cellular components involved in ERAD decreases the cross-presentation of exogenous OVA antigen was examined using a system for evaluating the level of antigen presentation, which uses naive CD8^+ T cells from OT-I mice and DC2.4 cells. The DC2.4 cells used as a model of dendritic cells are of the H-2 Kb mouse MHC class I haplotype. OT-I (H-2 Kb) mice are transgenic mice expressing a T cell receptor (TCRα and β) that recognizes an antigenic peptide (SIINFEKL) (SEQ ID NO: 15) derived from OVA presented on the H-2 Kb molecules. The CD8^+ cells of OT-I mice are activated when they recognize OVA peptides presented by BMDCs derived from H-2 Kb mice or by DC2.4 cells. When OVA or bOVA is incubated with and affixed onto DC2.4 cells and the cells are further incubated with naive CD8^+ T cells of OT-I mice, the amount of IL-2 produced by OT-I CD8^+ T cells serves as an index of T-cell stimulation as a result of OVA antigen presented by DC2.4 cells.
Parental or knocked-down DC2.4 cells were pre-incubated in a culture medium supplemented with 50 μg mL^−1 polymyxin B for 30 minutes in the presence or absence of lactacystin or MG-132, and incubated with OVA (250 μg mL^−1) or SIINFEKL (SEQ ID NO: 15) peptides (10 ng mL^−1) for six hours. The cells were washed, fixed with 1% paraformaldehyde, and aliquoted into microtiter plates (5×10^4 per well). 5×10^4 CD8^+ T cells purified from splenocytes of OT-1 mice using magnetic beads were added to each well and after a 24-hour incubation, the IL-2 secretion was measured by ELISA (BD Biosciences) in triplicate. […]

Sec61α = molecular target: T3, Sec61α (Mus musculus, UniProt P61620); experiment: Co-immunoprecipitation of bOVA with anti-Sec61α; type: binding; conditions: DC2.4 cells incubated with bOVA
T3 construct: endogenous in cells; host or cells: DC2.4 mouse dendritic cell line
Protocol: as §1

CHIP = molecular target: T4, CHIP (Mus musculus, UniProt Q9WUD1); experiment: Co-immunoprecipitation of bOVA with anti-CHIP; type: binding; conditions: DC2.4 cells incubated with bOVA
T4 construct: endogenous in cells; host or cells: DC2.4 mouse dendritic cell line
T4 sequence (Q9WUD1 1-304): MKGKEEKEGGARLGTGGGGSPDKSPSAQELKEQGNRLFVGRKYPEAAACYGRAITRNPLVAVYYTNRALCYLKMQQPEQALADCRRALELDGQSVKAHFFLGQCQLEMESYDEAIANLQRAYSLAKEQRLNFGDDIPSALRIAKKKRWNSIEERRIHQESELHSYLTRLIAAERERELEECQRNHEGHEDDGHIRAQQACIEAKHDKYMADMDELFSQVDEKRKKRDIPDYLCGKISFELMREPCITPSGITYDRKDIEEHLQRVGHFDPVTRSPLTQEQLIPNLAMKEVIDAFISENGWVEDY
Protocol: as §1

TAP1 = molecular target: T5, TAP1 (Mus musculus, UniProt P21958); experiment: Co-immunoprecipitation of bOVA with anti-TAP1; type: binding; conditions: DC2.4 cells incubated with bOVA
T5 construct: endogenous in cells; host or cells: DC2.4 mouse dendritic cell line
T5 sequence (P21958 1-724): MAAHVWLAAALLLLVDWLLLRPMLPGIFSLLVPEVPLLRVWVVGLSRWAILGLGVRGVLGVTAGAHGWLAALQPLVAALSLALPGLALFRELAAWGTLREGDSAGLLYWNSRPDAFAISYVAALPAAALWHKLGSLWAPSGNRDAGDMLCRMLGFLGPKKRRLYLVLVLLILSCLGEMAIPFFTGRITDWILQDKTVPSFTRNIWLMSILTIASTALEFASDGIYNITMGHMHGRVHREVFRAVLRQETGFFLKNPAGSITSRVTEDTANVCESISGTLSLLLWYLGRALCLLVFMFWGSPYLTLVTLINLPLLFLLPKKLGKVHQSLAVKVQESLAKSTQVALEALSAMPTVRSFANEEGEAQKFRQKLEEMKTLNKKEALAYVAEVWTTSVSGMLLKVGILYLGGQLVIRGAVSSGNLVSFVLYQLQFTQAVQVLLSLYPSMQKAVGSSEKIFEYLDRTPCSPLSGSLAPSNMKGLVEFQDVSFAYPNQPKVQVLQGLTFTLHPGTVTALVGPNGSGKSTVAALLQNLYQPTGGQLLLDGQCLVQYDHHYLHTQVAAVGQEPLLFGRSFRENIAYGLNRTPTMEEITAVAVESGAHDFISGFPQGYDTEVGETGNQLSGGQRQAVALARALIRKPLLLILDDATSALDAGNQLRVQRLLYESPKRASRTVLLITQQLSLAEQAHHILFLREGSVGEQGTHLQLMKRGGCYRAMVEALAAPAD
Protocol: as §1

- interaction with calreticulin (co-immunoprecipitation) (calreticulin): interacts
- interaction with CHIP (co-immunoprecipitation) (CHIP): interacts
- interaction with TAP1 (co-immunoprecipitation) (TAP1): does not interact
B1: bOVA: biotin-labeled OVA antigen (protein)
chain: GSIGAASMEFCFDVFKELKVHHANENIFYCPIAIMSALAMVYLGAKDSTRTQINKVVRFDKLPGFGDSIEAQCGTSVNVHSSLRDILNQITKPNDVYSFSLASRLYAEERYPILPEYLQCVKELYRGGLEPINFQTAADQARELINSWVESQTNGIIRNVLQPSSVDSQTAMVLVNAIVFKGLWEKAFKDEDTQAMPFRVTEQESKPVQMMYQIGLFRVASMASEKMKILELPFASGTMSMLVLLPDEVSGLEQLESIINFEKLTEWTSSNVMEERKIKVYLPRMKMEEKYNLTSVLMAMGITDVFSSSANLSGISSAESLKISQAVHAAHAEINEAGREVVGSAEAGVDAASVSEEFRADHPFLFCIKHIATNAVLFFGRCVSP
- interaction with Sec61β (co-immunoprecipitation) (Sec61β; BMDCs): interacts
- interaction with Sec61β (co-immunoprecipitation) (Sec61β; DC2.4 cells incubated with bOVA): interacts
- antigenicity for stimulation of CD8+ OT-I T cells (IL-2 production) (OT-I CD8+ T cells): equally antigenic
- interaction with Sec61α (co-immunoprecipitation) (Sec61α): interacts
